Data from IntAct's records for PubMed 18320024.

B1: Tetratricopeptide repeat protein 4 (Homo sapiens), O95801 (parent)
chain: MEQPGQDPTSDDVMDSFLEKFQSQPYRGGFHEDQWEKEFEKVPLFMSRAPSEIDPRENPDLACLQSIIFDEERSPEEQAKTYKDEGNDYFKEKDYKKAVISYTEGLKKKCADPDLNAVLYTNRAAAQYYLGNFRSALNDVTAARKLKPCHLKAIIRGALCHLELKHFAEAVNWCDEGLQIDAKEKKLLEMRAKADKLKRIEQRDVRKANLKEKKERNQNEALLQAIKARNIRLSEAACEDEDSASEGLGELFLDGLSTENPHGARLSLDGQGRLSWPVLFLYPEYAQSDFISAFHEDSRFIDHLMVMFGETPSWDLEQKYCPDNLEVYFEDEDRAELYRVPAKSTLLQVLQHQRYFVKALTPAFLVCVGSSPFCKNFLRGRKVYQIR

Variants of: B1
Conditions: with hs90b_human HSP90AB1, P08238
Sequence of hs90b_human HSP90AB1, P08238 (P08238 whole entry): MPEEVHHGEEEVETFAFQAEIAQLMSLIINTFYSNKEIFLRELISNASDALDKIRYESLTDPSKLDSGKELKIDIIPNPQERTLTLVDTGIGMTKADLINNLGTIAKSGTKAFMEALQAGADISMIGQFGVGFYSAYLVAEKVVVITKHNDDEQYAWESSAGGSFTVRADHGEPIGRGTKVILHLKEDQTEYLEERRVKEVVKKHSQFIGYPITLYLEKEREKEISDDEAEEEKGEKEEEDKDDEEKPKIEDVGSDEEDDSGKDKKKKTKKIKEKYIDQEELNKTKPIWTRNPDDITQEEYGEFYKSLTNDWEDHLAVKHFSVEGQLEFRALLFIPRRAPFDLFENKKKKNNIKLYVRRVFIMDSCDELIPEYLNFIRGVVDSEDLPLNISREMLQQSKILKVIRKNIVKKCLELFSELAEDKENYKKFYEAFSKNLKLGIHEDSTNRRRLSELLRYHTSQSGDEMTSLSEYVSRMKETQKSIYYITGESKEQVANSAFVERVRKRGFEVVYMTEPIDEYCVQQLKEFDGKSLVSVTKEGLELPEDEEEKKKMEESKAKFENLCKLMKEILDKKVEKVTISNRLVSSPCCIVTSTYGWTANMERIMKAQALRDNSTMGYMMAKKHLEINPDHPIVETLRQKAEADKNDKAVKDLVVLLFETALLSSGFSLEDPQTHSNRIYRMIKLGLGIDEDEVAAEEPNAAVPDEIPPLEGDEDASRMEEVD

Variant | effect of a mutation on the interaction
MEQPGQDPTSDDVMDSFLEKFQSQPYRGGFHEDQWEKEFEKDPLFMSRAPSEIDPRENPDLACLQSIIFDEERSPEEQAKTYKDEGNDYFKEKDYKKAVISYTEGLKKKCADPDLNAVLYTNRAAAQYYLGNFRSALNDVTAARKLKPCHLKAIIRGALCHLELKHFAEAVNWCDEGLQIDAKEKKLLEMRAKADKLKRIEQRDVRKANLKEKKERNQNEALLQAIKARNIRLSEAACEDEDSASEGLGELFLDGLSTENPHGARLSLDGQGRLSWPVLFLYPEYAQSDFISAFHEDSRFIDHLMVMFGETPSWDLEQKYCPDNLEVYFEDEDRAELYRVPAKSTLLQVLQHQRYFVKALTPAFLVCVGSSPFCKNFLRGRKVYQIR [V42D] | with no effect
MEQPGQDPTSDDVMDSFLEKFQSQPYRGGFHEDQWEKEFEKVPLFMSRAPSEIDPRENPDLACLQSIIFDEERSPEEQAKTYKDEGNDYFKEKDYKKAVISYTEGLKKKCADPDLNAVLYTNRAAAQYYLGNFRSALNDVTAARKLKPCHLKAIIRGALCHLELKHFAEAVNWCDEGLQIDAKEKKLLEMRAKADKLKRIEQRDVRKANLKEKKERKQNEALLQAIKARNIRLSEAACEDEDSASEGLGELFLDGLSTENPHGARLSLDGQGRLSWPVLFLYPEYAQSDFISAFHEDSRFIDHLMVMFGETPSWDLEQKYCPDNLEVYFEDEDRAELYRVPAKSTLLQVLQHQRYFVKALTPAFLVCVGSSPFCKNFLRGRKVYQIR [N217K] | decreasing interaction strength
MEQPGQDPTSDDVMDSFLEKFQSQPYRGGFHEDQWEKEFEKVPLFMSRAPSEIDPRENPDLACLQSIIFDEERSPEAQAKTYKDEGNDYFKEKDYKKAVISYTEGLKKKCADPDLNAVLYTNRAAAQYYLGNFRSALNDVTAARKLKPCHLKAIIRGALCHLELKHFAEAVNWCDEGLQIDAKEKKLLEMRAKADKLKRIEQRDVRKANLKEKKERNQNEALLQAIKARNIRLSEAACEDEDSASEGLGELFLDGLSTENPHGARLSLDGQGRLSWPVLFLYPEYAQSDFISAFHEDSRFIDHLMVMFGETPSWDLEQKYCPDNLEVYFEDEDRAELYRVPAKSTLLQVLQHQRYFVKALTPAFLVCVGSSPFCKNFLRGRKVYQIR [E77A] | decreasing interaction strength

Variants of: B1
Conditions: with hsp7c_human HSPA8, P11142
Sequence of hsp7c_human HSPA8, P11142 (P11142 whole entry, looked up): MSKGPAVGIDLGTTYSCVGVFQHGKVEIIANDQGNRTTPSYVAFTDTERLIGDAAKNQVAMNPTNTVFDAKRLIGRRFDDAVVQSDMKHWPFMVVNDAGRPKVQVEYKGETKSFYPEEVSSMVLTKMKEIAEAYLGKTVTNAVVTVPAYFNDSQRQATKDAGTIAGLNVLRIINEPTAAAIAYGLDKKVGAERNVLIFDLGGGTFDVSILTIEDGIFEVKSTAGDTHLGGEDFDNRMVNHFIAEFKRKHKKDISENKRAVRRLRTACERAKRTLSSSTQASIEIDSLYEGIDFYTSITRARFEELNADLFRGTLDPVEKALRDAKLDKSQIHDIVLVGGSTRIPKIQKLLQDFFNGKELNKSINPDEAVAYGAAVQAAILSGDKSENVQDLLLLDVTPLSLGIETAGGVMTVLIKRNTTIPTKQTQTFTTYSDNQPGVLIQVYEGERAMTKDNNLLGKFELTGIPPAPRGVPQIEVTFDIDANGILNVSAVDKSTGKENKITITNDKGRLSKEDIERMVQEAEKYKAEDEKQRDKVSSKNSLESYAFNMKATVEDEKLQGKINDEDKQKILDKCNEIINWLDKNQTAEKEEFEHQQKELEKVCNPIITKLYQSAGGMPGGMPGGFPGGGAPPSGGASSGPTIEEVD

Variant | effect of a mutation on the interaction
MEQPGQDPTSDDVMDSFLEKFQSQPYRGGFHEDQWEKEFEKDPLFMSRAPSEIDPRENPDLACLQSIIFDEERSPEEQAKTYKDEGNDYFKEKDYKKAVISYTEGLKKKCADPDLNAVLYTNRAAAQYYLGNFRSALNDVTAARKLKPCHLKAIIRGALCHLELKHFAEAVNWCDEGLQIDAKEKKLLEMRAKADKLKRIEQRDVRKANLKEKKERNQNEALLQAIKARNIRLSEAACEDEDSASEGLGELFLDGLSTENPHGARLSLDGQGRLSWPVLFLYPEYAQSDFISAFHEDSRFIDHLMVMFGETPSWDLEQKYCPDNLEVYFEDEDRAELYRVPAKSTLLQVLQHQRYFVKALTPAFLVCVGSSPFCKNFLRGRKVYQIR [V42D] | decreasing interaction strength
MEQPGQDPTSDDVMDSFLEKFQSQPYRGGFHEDQWEKEFEKVPLFMSRAPSEIDPRENPDLACLQSIIFDEERSPEEQAKTYKDEGNDYFKEKDYKKAVISYTEGLKKKCADPDLNAVLYTNRAAAQYYLGNFRSALNDVTAARKLKPCHLKAIIRGALCHLELKHFAEAVNWCDEGLQIDAKEKKLLEMRAKADKLKRIEQRDVRKANLKEKKERKQNEALLQAIKARNIRLSEAACEDEDSASEGLGELFLDGLSTENPHGARLSLDGQGRLSWPVLFLYPEYAQSDFISAFHEDSRFIDHLMVMFGETPSWDLEQKYCPDNLEVYFEDEDRAELYRVPAKSTLLQVLQHQRYFVKALTPAFLVCVGSSPFCKNFLRGRKVYQIR [N217K] | with no effect
MEQPGQDPTSDDVMDSFLEKFQSQPYRGGFHEDQWEKEFEKVPLFMSRAPSEIDPRENPDLACLQSIIFDEERSPEAQAKTYKDEGNDYFKEKDYKKAVISYTEGLKKKCADPDLNAVLYTNRAAAQYYLGNFRSALNDVTAARKLKPCHLKAIIRGALCHLELKHFAEAVNWCDEGLQIDAKEKKLLEMRAKADKLKRIEQRDVRKANLKEKKERNQNEALLQAIKARNIRLSEAACEDEDSASEGLGELFLDGLSTENPHGARLSLDGQGRLSWPVLFLYPEYAQSDFISAFHEDSRFIDHLMVMFGETPSWDLEQKYCPDNLEVYFEDEDRAELYRVPAKSTLLQVLQHQRYFVKALTPAFLVCVGSSPFCKNFLRGRKVYQIR [E77A] | with no effect

Variants of: B1
Conditions: with hs90b_human HSP90AB1, P08238
Remark: another data set of the same source

Variant | effect of a mutation on the interaction
MEQPGQDPTSDDVMDSFLEKFQSQPYRGGFHEDQWEKEFEKVPLFMSRAPSEIDPRENPDLACLQSIIFDEERSPEEQAKTYKDEGNDYFKEKDYKKAVISYTEGLKKKCADPDLNAVLYTNRAAAQYYLGNFRSALNDVTAARKLKPCHLEAIIEGALCHLELKHFAEAVNWCDEGLQIDAKEKKLLEMRAKADKLKRIEQRDVRKANLKEKKERNQNEALLQAIKARNIRLSEAACEDEDSASEGLGELFLDGLSTENPHGARLSLDGQGRLSWPVLFLYPEYAQSDFISAFHEDSRFIDHLMVMFGETPSWDLEQKYCPDNLEVYFEDEDRAELYRVPAKSTLLQVLQHQRYFVKALTPAFLVCVGSSPFCKNFLRGRKVYQIR [K152E;R156E] | disrupting interaction strength
